We go through four molecules from PMC6529005, “FMRP - G-quadruplex mRNA - miR-125a interactions: Implications for miR-125a mediated translation regulation of PSD-95 mRNA”.

Series [1] addresses T1, FMRP ISO1 (UniProt Q06787 1-632). The series is described as follows: fluorescence titration (2AP); 150 mM KCl, 1 uM BSA; Fluorescence: 10 mM cacodylic acid pH 6.5, 150 mM KCl, 1 uM BSA, 200 nM RNA; EMSA: 0.5x TBE native gels at 4 C (5 mM KCl for PSD-95 RNAs), incubation at room te. On the technique in general: Mobility shift assays separate free from complexed probe on a gel.

Series [2] addresses T1, FMRP ISO1. The series is described as follows: EMSA; 200 nM RNA, up to 1:2; Fluorescence: 10 mM cacodylic acid pH 6.5, 150 mM KCl, 1 uM BSA, 200 nM RNA; EMSA: 0.5x TBE native gels at 4 C (5 mM KCl for PSD-95 RNAs), incubation at room te.
For series [3], the target named is T1, FMRP ISO1. The series is described as follows: EMSA; 200 nM RNA, up to 1:6 RNA:protein; Fluorescence: 10 mM cacodylic acid pH 6.5, 150 mM KCl, 1 uM BSA, 200 nM RNA; EMSA: 0.5x TBE native gels at 4 C (5 mM KCl for PSD-95 RNAs), incubation at room te.

Broadly, the Kd is the concentration at which binding is half-saturated. Higher therefore signals weaker binding. In series [1], GGGAGGGAGGGUGGG (structured_RNA, A4 replaced by 2-aminopurine) [PSD-95 Q2 4-2AP] had a Kd of 195 nM.

Consider UAGGUAGUUUCAUGUUGUUGGG (ssRNA) [miR-196a-1], for which the binding result in series [2] is on record as “no binding”.

For the molecule GGGAAAAGGGAGGGAUGGG (structured_RNA, A11 replaced by 2-aminopurine) [PSD-95 Q11234 11-2AP], the dissociation constant (Kd) in series [1] was found to be 128 nM.

Take UCCCUGAGACCCUUUAACCUGUGA (ssRNA) [miR-125a]: in series [3], the binding result was “no binding”.
